{"source": "paper PMC7521798", "about": "(Molecular Biology of the Cell, 2020)", "binders": {"B1": {"name": "R-ras (natural protein, mouse (endogenous in NIH-3T3 and MEFs), UniProt P10833 1-218, looked up)", "chain": "MSSGAASGTGRGRPRGGGPGPRDPPPGETHKLVVVGGGGVGKSALTIQFIQSYFVSDYDPTIEDSYTKICTVDGIPARLDILDTAGQEEFGAMREQYMRAGNGFLLVFAINDRQSFNEVGKLFTQILRVKDRDDFPIVLVGNKADLENQRQVLRSEASSFSASHHMTYFEASAKLRLNVDEAFEQLVRAVRKYQEQELPPSPPSAPRKKDGGCPCVLL"}}, "target": "GFP-IQGAP1 ∆GRD (1004–1237 aa deleted) (UniProt P46940 1-1657, 1004–1237 aa deleted)", "experiment": "co-IP", "data": [{"binder": "B1", "values": [{"measurement": "fold less association with R-ras than IQGAP1, IQGAP1 ∆IQ or IQGAP1 ∆WW", "result": 5, "unit": "fold"}]}]}
